The assay deals with T1, purified recombinant Kap121p (S. cerevisiae, UniProt P32337 1-1089).
T1 sequence (looked up): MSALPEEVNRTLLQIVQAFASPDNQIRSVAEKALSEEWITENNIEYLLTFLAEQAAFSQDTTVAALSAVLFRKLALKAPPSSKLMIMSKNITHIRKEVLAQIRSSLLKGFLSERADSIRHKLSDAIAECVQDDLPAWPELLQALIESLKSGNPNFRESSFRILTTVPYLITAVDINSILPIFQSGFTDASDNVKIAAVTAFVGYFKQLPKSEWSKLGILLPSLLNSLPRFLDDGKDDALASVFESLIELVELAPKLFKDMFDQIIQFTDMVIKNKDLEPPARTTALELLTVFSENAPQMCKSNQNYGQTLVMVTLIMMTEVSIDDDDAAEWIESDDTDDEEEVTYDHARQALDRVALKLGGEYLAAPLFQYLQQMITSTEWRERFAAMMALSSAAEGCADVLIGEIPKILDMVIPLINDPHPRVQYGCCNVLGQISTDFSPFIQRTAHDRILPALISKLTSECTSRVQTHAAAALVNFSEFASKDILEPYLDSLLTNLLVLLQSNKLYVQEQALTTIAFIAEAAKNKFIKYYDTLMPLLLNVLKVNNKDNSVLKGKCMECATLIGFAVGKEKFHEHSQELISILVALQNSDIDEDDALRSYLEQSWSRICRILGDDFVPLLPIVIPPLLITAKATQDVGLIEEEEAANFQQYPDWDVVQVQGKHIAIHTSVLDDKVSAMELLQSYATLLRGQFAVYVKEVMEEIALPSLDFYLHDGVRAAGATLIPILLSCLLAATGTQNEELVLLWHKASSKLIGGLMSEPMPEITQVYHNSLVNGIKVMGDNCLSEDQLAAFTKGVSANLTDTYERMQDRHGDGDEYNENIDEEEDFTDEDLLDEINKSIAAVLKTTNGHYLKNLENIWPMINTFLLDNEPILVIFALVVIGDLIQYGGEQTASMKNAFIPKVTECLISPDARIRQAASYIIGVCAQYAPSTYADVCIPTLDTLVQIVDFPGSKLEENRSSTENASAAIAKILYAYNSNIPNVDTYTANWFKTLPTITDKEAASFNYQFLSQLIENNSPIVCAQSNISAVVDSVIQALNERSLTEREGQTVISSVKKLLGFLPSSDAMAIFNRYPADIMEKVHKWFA
Briefly: pull-down.

B1: purified recombinant Nup53p (natural protein, S. cerevisiae, UniProt Q03790 1-475, looked up)
chain: MADLQKQENSSRFTNVSVIAPESQGQHEQQKQQEQLEQQKQPTGLLKGLNGFPSAPQPLFMEDPPSTVSGELNDNPAWFNNPRKRAIPNSIIKRSNGQSLSPVRSDSADVPAFSNSNGFNNVTFGSKKDPRILKNVSPNDNNSANNNAHSSDLGTVVFDSNEAPPKTSLADWQKEDGIFSSKTDNIEDPNLSSNITFDGKPTATPSPFRPLEKTSRILNFFDKNTKTTPNTASSEASAGSKEGASTNWDDHAIIIFGYPETIANSIILHFANFGEILEDFRVIKDFKKLNSKNMSKSPSLTAQKYPIYTGDGWVKLTYKSELSKSRALQENGIIMNGTLIGCVSYSPAALKQLASLKKSEEIINNKTSSQTSLSSKDLSNYRKTEGIFEKAKAKAVTSKVRNAEFKVSKNSTSFKNPRRLEIKDGRSLFLRNRGKIHSGVLSSIESDLKKREQASKSKKSWLNRLNNWLFGWNDL
For B1, the binding result is “binds”.

Values taken from article PMC2064105 (The Journal of Cell Biology, 2007).
